Test results as given in patent US7943319B2, “Utility of RET mutant in diagnosis and treatment of melanoma” (John Wayne Cancer Institute, priority 2007, dated 2011).
Entries after “also recorded” stand apart in the source; their conditions may differ.

What was measured:
RET = RET (Homo sapiens, UniProt P07949); details: cited from earlier work
RETmt thyroid cancers = details: cited from earlier work
ME7 cells (RETmt/BRAFwt) = assay: Blocking assay of GDNF-induced proliferation; assay type: cell-based, human; details: pre-treated 60 min with 10 μM PD98059 or 100 nM wortmannin, then 25 ng/ml GDNF for 72 hrs
Description: (§1) Cell proliferation 48 and 72 hrs after GDNF treatment (5, 25 or 50 ng/ml, dissolved in water) in serum-free medium was analyzed by 3-(4,5-dimethylthiazol-2-yl)-2,5-diphenyltetrazolium bromide (MTT) and direct cell counting with a light microscope, respectively. MTT (0.4 mg/ml, Sigma-Aldrich, St. Louis, Mo.) was added into culture wells after washing with PBS. The converted dye was dissolved with DMSO 2 hrs after incubation at 37° C. and the absorbance was measured at a wavelength of 550 nm with a microplate reader (Bio-Rad). For cell counting, cells were harvested after washing with PBS and the number of cells was counted using a hemocytometer under a microscope. In blocking assays, cells were pre-treated with 10 μM of a MEK1 inhibitor, PD98059 (Cell Signaling Technology), or 100 nM of a PI3K inhibitor, wortmannin (Cell Signaling Technology), for 60 min before treatment of GDNF as indicated in the instructions from the company, and followed by 25 ng/ml of GDNF treatment for 72 hrs. To avoid the effect of the delivery agent on cells, PD98059 and wortmannin were dissolved in PBS, and the same amount of PBS was added to control (GDNF(−)) and GDNF-treated cells.

[1] = target: RET G691S mutant (RETmt), endogenous on melanoma cells (human) (UniProt P07949); assay: cell-based or functional assay
[2] = test system: melanoma cells (RETmt and RETwt); assay: Cell proliferation by GDNF (MTT assay); assay type: cell-based, human; details: 48-hr exposure to GDNF, serum-free medium
Description: as §1

[3] = test system: melanoma cells (RETmt and RETwt); assay: Migration assay (Transwell chamber) with GDNF; assay type: cell-based, human; details: RETmt cells compared with RETwt cells; 5 or 25 ng/ml GDNF, 48 hrs
Description: Migration ability of the melanoma cells was determined with a modified technique using a Transwell® chamber with a microporous membrane (membrane diameter 6.5 mm, pore size 8 μm, CORNING, Corning, N.Y.) (29). Melanoma cells were seeded in the upper chamber with RPMI 1640 culture medium (Invitrogen) with 2% fetal bovine serum (FBS). The lower chamber contained RPMI 1640 culture medium with 2% FBS and 5 or 25 ng/ml of GDNF. The cells that migrated through the membrane and adhered to the bottom of lower chamber were fixed with 80% ethanol and stained with hematoxylin 48 hrs after incubation at 37° C. The number of stained cells was counted in a total of 5 fields under a microscope with 200× magnification. In blocking assays, cells were pre-treated with wortmannin (100 nM) for 60 min before treatment of GDNF as indicated in the instructions from the company and followed by treatment with 25 ng/ml GDNF for 48 hrs. To avoid the effect of the delivery agent on cells, wortmannin was dissolved in PBS, and the same amount of PBS was added to control (GDNF(−)) and GDNF-treated cells.

[4] = test system: melanoma cells (ME1, ME7, ME3); assay: Actin polymers staining by Alexa Fluor 568 phalloidin; assay type: cell-based, human; details: 10 ng/ml GDNF, 48 hrs
Description: Melanoma cells were seeded in BD BioCoat™ CultureSlides (BD Biosciences, San Jose, Calif.). Cells were washed twice with PBS and fixed with 3.7% formaldehyde solution in PBS for 10 min at room temperature after a 48 hr incubation with GDNF (10 ng/ml) at 37° C. Fixed cells were stained with 1 U/200 μl of PBS Alexa Fluor® 568 phalloidin (Invitrogen) for 20 min at room temperature. After washing twice with PBS, actin polymers were observed using fluorescence microscopy with 400× magnification.

[5] = test system: melanoma cells (RETmt and RETwt); assay: QCM Collagen-based Invasion Assay with GDNF; assay type: cell-based, human; details: RETmt cells compared with RETwt cells; 25 ng/ml GDNF, 60 hrs
Description: Invasion ability of the melanoma cells was analyzed using QCM™ Collagen-based Invasion Assay MILLIPORE, Billerica, Mass.), as described in previous reports (27, 29). Cells were seeded in the upper chamber with RPMI 1640 culture medium (Invitrogen) with 2% FBS containing GDNF. The lower chamber contained RPMI 1640 culture medium with 5% FBS and GDNF with same concentration as the upper chamber (25 ng/ml). Cells invading the collagen-coated membrane were fixed and stained 60 hrs after incubation at 37° C. using reagents provided by MILLIPORE, according to the manufacturer's instructions. Stained cells were dissolved with a provided reagent and measured at a 550 nm wavelength with a microplate reader (Bio-Rad). In the blocking assay, cells were pre-treated with 1 μg/ml of a goat anti-human polyclonal RET-specific Ab, which binds to the extracellular domain of RET (R&D Systems), or 1 μg/ml control goat IgG (Santa Cruz Biotechnology) as a control 60 min before treatment with GDNF and followed by treatment with 25 ng/ml GDNF for 60 hrs.

Akt = assay: Western blotting of phosphorylated Akt after GDNF; assay type: cell-based, human; details: 25 ng/ml GDNF
Description: (§2) Cells were washed twice with ice-cold phosphate-buffered saline (PBS) and dissolved in solubilizing buffer (pH 7.5, 20 mM Tris-HCL, 12.5 mM β-glycerophosphate, 2 mM EGTA, 10 mM NaF, 1 mM benzamide, 1% NP-40, 1 mM Na3VO4, 1× protease inhibitor mix) after treatment with 25 μg human recombinant GDNF (Chemicon International, Temecula, Calif.). Each aliquot of protein (10 μg) was subjected to Western blotting analysis. After electrophoresis on 12.5% polyacrylamide gels, the protein was transblotted to Hybond™-P (Amersham Life Sciences, Inc., Arlington Heights, Ill.) in transfer buffer (192 mM glycine, 25 mM Tris, 2.5 mM SDS, and 10% methanol). The blots were blocked with 5% non-fat dry milk, and then incubated with anti-ERK 1/2 rabbit polyclonal Ab, or anti-phosphorylated ERK 1/2 rabbit polyclonal Ab (1:1000, Phosphoplus® p44/42 MAP Kinase (Thr202/Tyr204) Antibody kit, Cell Signaling Technology, Danvers, Mass.), and then incubated with an horse radish peroxidase (HRP)-conjugated anti-rabbit IgG Ab (1:2000, Cell Signaling Technology). As for Western blotting of Akt, anti-Akt rabbit polyclonal Ab, or anti-phosphorylated Akt rabbit polyclonal Ab (1:500, Phosphoplus® Akt (Ser473) Antibody Kit, Cell Signaling Technology) and a secondary Ab, HRP-conjugated anti-rabbit IgG Ab (1:1000), were used. Subsequently, the blots were developed with ECL Plus Western blotting Detection system (GE Healthcare Life Sciences, Piscataway, N.J.) according to the manufacturer instructions.

ERK1/2 = assay: Western blotting of phosphorylated ERK1/2 after GDNF; assay type: cell-based, human; details: 25 ng/ml GDNF
Description: as §2

Chain of RET (P07949 29-1114): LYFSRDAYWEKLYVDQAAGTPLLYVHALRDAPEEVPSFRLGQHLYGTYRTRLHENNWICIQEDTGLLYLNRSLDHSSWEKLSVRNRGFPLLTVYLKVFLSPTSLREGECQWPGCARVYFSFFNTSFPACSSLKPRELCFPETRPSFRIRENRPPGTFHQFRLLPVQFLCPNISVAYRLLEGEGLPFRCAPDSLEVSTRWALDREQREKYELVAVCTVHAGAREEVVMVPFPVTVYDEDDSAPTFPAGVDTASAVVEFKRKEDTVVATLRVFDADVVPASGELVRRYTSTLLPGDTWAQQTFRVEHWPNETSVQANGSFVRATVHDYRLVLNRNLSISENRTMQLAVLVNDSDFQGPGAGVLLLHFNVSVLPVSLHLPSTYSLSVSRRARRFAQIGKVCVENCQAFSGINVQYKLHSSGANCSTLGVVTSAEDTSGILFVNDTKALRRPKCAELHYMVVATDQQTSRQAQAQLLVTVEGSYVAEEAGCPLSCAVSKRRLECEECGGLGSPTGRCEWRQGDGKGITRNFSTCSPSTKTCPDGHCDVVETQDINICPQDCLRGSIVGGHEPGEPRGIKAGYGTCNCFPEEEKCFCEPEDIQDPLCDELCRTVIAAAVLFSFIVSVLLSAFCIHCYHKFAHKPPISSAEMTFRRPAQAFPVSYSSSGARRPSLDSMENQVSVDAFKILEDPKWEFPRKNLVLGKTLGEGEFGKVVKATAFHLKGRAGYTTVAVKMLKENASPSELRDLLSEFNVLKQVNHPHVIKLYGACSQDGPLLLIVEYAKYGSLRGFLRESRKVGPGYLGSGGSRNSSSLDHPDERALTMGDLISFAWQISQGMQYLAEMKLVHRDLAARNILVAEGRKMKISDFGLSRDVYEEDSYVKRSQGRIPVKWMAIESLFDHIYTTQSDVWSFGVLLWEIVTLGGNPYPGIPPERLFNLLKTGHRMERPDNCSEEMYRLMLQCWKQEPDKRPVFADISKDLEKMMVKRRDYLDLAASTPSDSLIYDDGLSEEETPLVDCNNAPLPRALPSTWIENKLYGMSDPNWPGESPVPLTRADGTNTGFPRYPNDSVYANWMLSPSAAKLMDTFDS
Chain of RET G691S mutant (RETmt), endogenous on melanoma cells (human) (P07949 29-1114 G691S): as the sequence (P07949 29-1114) above, with G663S counted along it

In the case of `CNC(=O)c1cc(Oc2ccc(NC(=O)Nc3ccc(Cl)c(C(F)(F)F)c3)cc2)ccn1` [Sorafenib], the RET signaling (RET) is given as “can block”, the “kinase activity of RET” value (RET) is given as “directly suppresses” and the “lysosomal degradation of RET protein” value (RET) is given as “promotes”. For the same molecule, the “growth of RETmt thyroid cancers” value (RETmt thyroid cancers) was “suppress growth”.

For `COc1cccc(-c2cc(=O)c3ccccc3o2)c1N` [PD98059], the “suppression of GDNF-induced proliferation” value (ME7 cells (RETmt/BRAFwt)) was “significantly blocked; also recorded: completely suppressed”.

“human recombinant GDNF (glial cell line-derived neurotrophic factor) (from UniProt P39905 78-211) (ligand)” showed a suppression by RET siRNA of GDNF-induced cell proliferation in ME1 (MTT assay) [1] greater than 80%.

B1: GDNF: human recombinant GDNF (Chemicon International), major ligand of RET (protein)
chain: SPDKQMAVLPRRERNRQAAAANPENSRGKGRRGQRGKNRGCVLTAIHLNVTDLGLGYETKEELIFRYCSGSCDAAETTYDKILKNLSRNRRLVSDKVGQACCRPIAFDDDLSFLDDNLVYHILRKHSAKRCGCI
With B1 the “cell proliferation on GDNF exposure” value ([2]; RETmt melanoma cells) was “enhanced proliferation”, the “cell proliferation on GDNF exposure” value ([2]; RETwt melanoma cells) was “but not RETwt melanoma cells” and the “migration after GDNF stimulation” value [3] was “more vigorous”. The “actin polymerization (filopodia)” value ([4]; RETmt cell lines ME1, ME7) was “induced intensely; also recorded: induced filopodia”, the “actin polymerization (filopodia)” value ([4]; RETwt cell line ME3) was “no actin polymerization induced” and the “invasion after GDNF stimulation” value [5] was “more vigorous”. The “phosphorylation of Akt” value (Akt; ME1 (RETmt/BRAFmt), ME5 (RETmt/BRAFwt)) was “strongly phosphorylated”, the “duration of phosphorylation of Akt” value (Akt; ME1, ME5) was 60 min and the “time to strong phosphorylation of Akt after treatment” value (Akt; ME1, ME5) was no more than 15 min. For the same molecule, the “phosphorylation of Akt” value (Akt; ME3 (RETwt/BRAFwt)) was “weak phosphorylation”, the “phosphorylation of ERK1/2” value (ERK1/2; ME1 (RETmt/BRAFmt), ME7 (RETmt/BRAFwt)) was “more intense phosphorylation; also recorded: strongly phosphorylated” and the “duration of phosphorylation of ERK1/2” value (ERK1/2; ME1, ME7) was 60 min. For the same molecule, the “time to strong phosphorylation of ERK1/2 after treatment” value (ERK1/2; ME1, ME7) was no more than 15 min and the “phosphorylation of ERK1/2” value (ERK1/2; ME3 (RETwt/BRAFwt)) was “weak phosphorylation”.
